Experiment: yeast display, Sf9 membrane polyspecificity reagent, FACS + sequencing; frameworks hold sequencing errors
Outline: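 After 36–48 hours of galactose induction, yeast (Saccharomyces cerevisiae BJ5465) displaying a synthetic nanobody library were stained at 4 °C for 1 hour with 10% biotinylated, detergent-solubilized Sf9 membrane reagent. Streptavidin microbeads enriched the stained cells before FACS sorting into low and high (top ~1%) gates on anti-HA and streptavidin fluorescence. Each clone's polyreactivity label reflects its gate of origin.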

Sequence: QVQLVESGGGLVQAGGSLSLSCAASGRTFWVYAMGWYRQAPGKERELVAAIRRGGITNYADSVKGRFTNSRDNAKNTVYLQMNCLKPEDTALYYCDTDKYGYLTRYYYWGQGTQVTVSS
- polyreactivity (PSR sort gate): low polyreactivity

Sequence: QVQLVESGGGLVQAGGSLRLSCAASGSTFETYAMGWYRQAPGKERELVATISLSGGRTYYADSVKGRFTISRDNAKNTVYLQMNSLKPEDTAVYYCNADGYGNVGGGDSWGQGTQVTVSS
- polyreactivity (PSR sort gate): low polyreactivity

Sequence: QVQLVESVGGLVQAGGSLRLTCAASVITQRFNSMGWYRQAPGKEMELVAAISSGTNTYYADSVKGRFAISRDNAKNTVYLQMNSLKPEDTAVYYCADTLGYYTSGRSYQRYDYWGHGTQVTVSS
- polyreactivity (PSR sort gate): low polyreactivity

Sequence: QVQLVESGGGLVQAGGSLRLSCAASGSIFGSYAMGWYRQAPGKERELVAAITYSGGSTYYADSVKGRFTISRDNAKNTVYLHMNSLKPEDTAVYYCAADYSFYWAYFDYWGQGTQVTVSS
- polyreactivity (PSR sort gate): high polyreactivity

Sequence: QVQLVESGGGLVQAGVSLRLSCAASGSIFFYNARGWYRQAPRKERELVAAITTRGGSTYYADSVKGRFTISRDNAQNYVYLQMNSLKPEDTAVSYCARSSRGKLDYWGQGTQVTVSS
- polyreactivity (PSR sort gate): low polyreactivity

Sequence: QVQLVESGGGLVQAGGSLRLSCAASGRIFYQNTMGWYRQAPGKEREFVARINWSGGSTYYADSVKGRFTISRDNAKITVYLQMNSLKPEDTAVYYWAKASQSWGRDDYYYWGQGTQVTVSS
- polyreactivity (PSR sort gate): low polyreactivity

Sequence: QVKLVESGGGLVQAGGTLRLSCAASGSISWVYAMGWYRQAPGKERELVADITDSGDSTYYADSVKGRFTISRDNAKNTVYLQMNSLKPEDTAVFYCAAVSGPFVQTSGNGEYDYCGQGTQVTVSS
- polyreactivity (PSR sort gate): low polyreactivity

Sequence: QVQLVESGGGLVQAGASLRLSCAASVIIFKIYAMGWYRQAPGKERELVAAITRSGTRTYYADSVKGRFTISRDNAKNTVYLQMNSLKPEDTAVYYCNAYTTLAYDLDYWGQGTQVTVSS
- polyreactivity (PSR sort gate): high polyreactivity

Sequence: QVQLVESGGGLVQAGGSLRLSCAASGRIFSYYTMGWYRQAPGKERELVAAITGSGGTTYYADSVKGRFTISRDNAKNTVYLQMNSLKPEDTAVYYCAARGYYRWAPYADWRFNYWGQGTQVTVSS
- polyreactivity (PSR sort gate): high polyreactivity

Sequence: QVQLVESGGGLVQAGASLRLSCAASGITFYSYGMGWYRQAPGKERELVAAISGSGTTTYADSVKGRFTISRDNAKNPVYLQMNSLKPEDTAVYYCAAVARYPRWHHYYWGQGTQVTVSS
- polyreactivity (PSR sort gate): low polyreactivity

Sequence: QVQLVESGGGLVPARGSLRLSCAASGIILRGYAMGWYRQSPGKERELVAAITYRGSSTYYADSVKGSFTISRDNAKNTVYLQMNSLKPEDTAVYYCGADRWLYAVITAGGGYWGQGTQVTVSS
- polyreactivity (PSR sort gate): high polyreactivity

Sequence: QVQLQESGGGLVQAGGCLRLSCAASGTISTAYQMGWYRQAPGKEREFVAAIGYGAITNYADSVKGRFTISRDNAKNTVYLQMNSLKPEDTAVYYCAARRYVAGRGAYDYWGQGTQVTLSS
- polyreactivity (PSR sort gate): low polyreactivity

Sequence: QVQRVESGGGLVQAGGSLRLSCAASGSIFLSYDMGWYRQAPGKERELVAAITQSGGSTYYADSVKGRFTISRDNAKNTVYLQMNSLKPQDTAVYSCAVRVSGPRGYDYEYWGQGTQVTVSS
- polyreactivity (PSR sort gate): low polyreactivity

Sequence: QVQLVESGGGLVQAGGSLRLSCAASGGIFKVYGMRWYRQAPGKERELVAAISWTTGGTYYADSVKGRFTISRDNAKITVYLQMNSLKQEDTAVYYCAAEYADSWSAFDWNYYYWGQGTQVTVSS
- polyreactivity (PSR sort gate): high polyreactivity

Sequence: QVQLVESGGGLVQAGGSLRLSCAASGSIFGTNAMGWYRQAPGKERELVATITSAGSTYYADSVKGRFTISRYNAKNTVYLQMNSLKPEDTAVYYCARQATGYVYREYEYWGQGTQVTVSS
- polyreactivity (PSR sort gate): low polyreactivity

Sequence: QDQLVESGGGLVQAGASLRLSCAASGSNGYYAMGWYRQAPGKERELVAVISRSGTGTYYADSVKGRFTISRDNAKNSVYLQMNSLKPEDTAVYYCNAETYTYRYEYDYWGQGTQVTVSS
- polyreactivity (PSR sort gate): high polyreactivity

Sequence: QVQLVESGGGLVQAGGSLRLSCSASGSTFYVYAMGWYRQAPGKERELVAAITDSGGSTYYADSVKGRFTISRDNAKNTVYLQMNILKPEDTAVYYCAREYTYRYHYYYWGQGTQVTVSS
- polyreactivity (PSR sort gate): low polyreactivity

Reference: the nanobody polyreactivity screen of Harvey et al. (2022)
